What all share (assay): cell-based or functional assay
Experiment [1] deals with T1, HIV-1 SF162 gp120 (HIV-1, isolate SF162, UniProt P19550 32-502). More on the design: unit not given beside the values.
Experiment [2] has as its target T2, HIV-1 89.6 gp120 (HIV-1, isolate 89.6, UniProt Q73372 32-508). Set-up: unit not given beside the values.
Experiment [3] concerns the target T1, HIV-1 SF162 gp120.
Experiment [4] concerns the target T3, HIV-1 JR-FL gp120 (HIV-1, isolate JR-FL).
For experiment [5], the target named is T2, HIV-1 89.6 gp120.
Experiment [6] concerns the target T4, HIV-1 93MW960 gp120 (HIV-1, isolate 93MW960).
Experiment [7] deals with T5, HIV-1 BaL gp120 (HIV-1, isolate BaL).
The target in experiment [8] is T3, HIV-1 JR-FL gp120. This is another data set of the same source.
The target of a further experiment is HIV-1 67970 gp120 (HIV-1, isolate 67970).
For experiment [9], the target named is T1, HIV-1 SF162 gp120. The source holds these as a separate data set.
Experiment [10] concerns the target T3, HIV-1 JR-FL gp120. This is another data set of the same source.
Experiment [11] addresses T2, HIV-1 89.6 gp120. This is another data set of the same source.
For experiment [12], the target named is T4, HIV-1 93MW960 gp120. This is another data set of the same source.
Experiment [13] concerns the target T5, HIV-1 BaL gp120. This is another data set of the same source.

From patent US20160039913A1 (LFB USA, published 2016) come the findings set out here.

B1: b12 IgA2 purified from CHO cells (antibody, V domains shown)
VH: QVQLVQSGAEVKKPGASVKVSCQASGYRFSNFVIHWVRQAPGQRFEWMGWINPYNGNKEFSAKFQDRVTFTADTSANTAYMELRSLRSADTAVYYCARVGPYSWDDSPQDNYYMDVWGQGTTVIVSS
VL: EIVLTQAPGTLSLSPGERATFSCRSSHSIRSRRVAWYQHKPGQAPRLVIHGVSNRASGISDRFSGSGSGTDFTLTITRVEPEDFALYYCQVYGASSYTFGQGTKLERKR
In the case of B1, the “IC90, neutralization of HIV SF162 (TZM-bl assay)” value (shortened to “IC90, neutralization of HIV SF162”) with HIV-1 SF162 gp120 [1] stood at 1.03. In addition, in the experiment with HIV-1 89.6 gp120 [2], the “IC90, neutralization of HIV 89.6 (TZM-bl assay)” value was 6.75. Moreover, in the experiment with HIV-1 SF162 gp120 [3], the “IC50, ADCVI assay with PMN (+ PMN), SF162-infected PBMC” value (“IC50 … (+ PMN), SF162-infected PBMC” for short) was found to be 0.3 µg/mL and the “IC50, ADCVI assay without PMN (- PMN), SF162-infected PBMC” value came to 9.5 µg/mL. In addition, in the experiment with HIV-1 JR-FL gp120 [4], the “IC50, ADCVI assay with PMN (+ PMN), JR-FL-infected PBMC” value was over 20 µg/mL and the “IC50, ADCVI assay without PMN (- PMN), JR-FL-infected PBMC” value is over 20 µg/mL. Besides, in the experiment with HIV-1 89.6 gp120 [5], the “IC50, ADCVI assay with PMN (+ PMN), 89.6-infected PBMC” value (“IC50 … (+ PMN), 89.6-infected PBMC” below) amounted to 14.5 µg/mL and the “IC50, ADCVI assay without PMN (- PMN), 89.6-infected PBMC” value was over 20 µg/mL. For the same molecule, in the experiment with HIV-1 93MW960 gp120 [6], the “IC50, ADCVI assay with PMN (+ PMN), 93MW960-infected PBMC” value (from here on “IC50 … (+ PMN), 93MW960-infected PBMC”) was found to be 10 µg/mL and the “IC50, ADCVI assay without PMN (- PMN), 93MW960-infected PBMC” value was over 20 µg/mL. Also, in the experiment with HIV-1 BaL gp120 [7], the “IC50, ADCVI assay with PMN (+ PMN), BaL-infected PBMC” value (from here on “IC50 … (+ PMN), BaL-infected PBMC”) worked out at 2.1 µg/mL and the “IC50, ADCVI assay without PMN (- PMN), BaL-infected PBMC” value is over 20 µg/mL.

B2: b12 IgA2 purified from milk (antibody, V domains shown)
VH: QVQLVQSGAEVKKPGASVKVSCQASGYRFSNFVIHWVRQAPGQRFEWMGWINPYNGNKEFSAKFQDRVTFTADTSANTAYMELRSLRSADTAVYYCARVGPYSWDDSPQDNYYMDVWGQGTTVIVSS
VL: EIVLTQAPGTLSLSPGERATFSCRSSHSIRSRRVAWYQHKPGQAPRLVIHGVSNRASGISDRFSGSGSGTDFTLTITRVEPEDFALYYCQVYGASSYTFGQGTKLERKR
With B2, the “IC90, neutralization of HIV SF162” value in the experiment with HIV-1 SF162 gp120 [1] was 0.79. Besides, the “IC90, neutralization of HIV 89.6 (TZM-bl assay)” value with HIV-1 89.6 gp120 [2] was determined as 8.37. Besides, in the experiment with HIV-1 SF162 gp120 [3], the “IC50 … (+ PMN), SF162-infected PBMC” value was found to be 0.3 µg/mL and the “IC50, ADCVI assay without PMN (- PMN), SF162-infected PBMC” value came to 2.1 µg/mL. Moreover, in the experiment with HIV-1 JR-FL gp120 [4], the “IC50, ADCVI assay with PMN (+ PMN), JR-FL-infected PBMC” value is over 20 µg/mL and the “IC50, ADCVI assay without PMN (- PMN), JR-FL-infected PBMC” value is over 20 µg/mL. In the experiment with HIV-1 89.6 gp120 [5], the “IC50 … (+ PMN), 89.6-infected PBMC” value turned out to be 17.1 µg/mL and the “IC50, ADCVI assay without PMN (- PMN), 89.6-infected PBMC” value is over 20 µg/mL. Moreover, in the experiment with HIV-1 93MW960 gp120 [6], the “IC50 … (+ PMN), 93MW960-infected PBMC” value was found to be 17.5 µg/mL and the “IC50, ADCVI assay without PMN (- PMN), 93MW960-infected PBMC” value was over 20 µg/mL. Also, in the experiment with HIV-1 BaL gp120 [7], the “IC50 … (+ PMN), BaL-infected PBMC” value was determined as 2.2 µg/mL and the “IC50, ADCVI assay without PMN (- PMN), BaL-infected PBMC” value was 13.1 µg/mL.

B3: b12 IgA2 expressed in milk (antibody, V domains shown)
VH: QVQLVQSGAEVKKPGASVKVSCQASGYRFSNFVIHWVRQAPGQRFEWMGWINPYNGNKEFSAKFQDRVTFTADTSANTAYMELRSLRSADTAVYYCARVGPYSWDDSPQDNYYMDVWGQGTTVIVSS
VL: EIVLTQAPGTLSLSPGERATFSCRSSHSIRSRRVAWYQHKPGQAPRLVIHGVSNRASGISDRFSGSGSGTDFTLTITRVEPEDFALYYCQVYGASSYTFGQGTKLERKR
Regarding B3, in the experiment with HIV-1 SF162 gp120 [1], the “IC90, neutralization of HIV SF162” value is 0.34. The “IC90, neutralization of HIV 89.6 (TZM-bl assay)” value with HIV-1 89.6 gp120 [2] is 1.85. Also, in the experiment with HIV-1 SF162 gp120 [3], the “IC50 … (+ PMN), SF162-infected PBMC” value was determined as 0.4 µg/mL and the “IC50, ADCVI assay without PMN (- PMN), SF162-infected PBMC” value amounted to 6.6 µg/mL. Further, the “IC50, ADCVI assay without PMN (- PMN), JR-FL-infected PBMC” value with HIV-1 JR-FL gp120 [4] was found to be 9.6 µg/mL. In addition, in the experiment with HIV-1 89.6 gp120 [5], the “IC50 … (+ PMN), 89.6-infected PBMC” value came out at 3.9 µg/mL and the “IC50, ADCVI assay without PMN (- PMN), 89.6-infected PBMC” value was 4.8 µg/mL. Further, in the experiment with HIV-1 93MW960 gp120 [6], the “IC50 … (+ PMN), 93MW960-infected PBMC” value was 3.3 µg/mL and the “IC50, ADCVI assay without PMN (- PMN), 93MW960-infected PBMC” value was over 20 µg/mL. Also, in the experiment with HIV-1 BaL gp120 [7], the “IC50 … (+ PMN), BaL-infected PBMC” value worked out at 2.3 µg/mL and the “IC50, ADCVI assay without PMN (- PMN), BaL-infected PBMC” value came out at 19.3 µg/mL.

B4: F425-A1g8 IgG1 antibody variant (antibody, V domains shown)
VH: QEQLVESGGGVVQPGRSLRLSCEASGFIFSAFVLHWVRQAPGKGLEWVAVVWYDGNSKYYADSVKGRFTISRDTSQNTLHLQMDSLRPEDTAVYYCAREWVADDDTFDGFDVWGQGTMVTVSS
VL: EIVLSQSPATLSLSPGERATLSCRASQSVTNSLAWYQQKPGQAPRLLIYDASNRATGIPARFSGSGSGTDFTLTISSLEPEDFAVYYCQQRSNWPPEVTFGPGTKVDIKR
In the case of B4, the “IC50, neutralization of HIV-1 JR-FL (TZM-bl cells, no sCD4)” value in the experiment with HIV-1 JR-FL gp120 [8] was over 40 µg/mL. Moreover, the “IC50, neutralization of HIV-1 67970 (TZM-bl cells, no sCD4)” value with HIV-1 67970 gp120 is over 40 µg/mL. Also, the “IC50, ADCVI with neutrophils, SF162-infected PBMC” value with HIV-1 SF162 gp120 [9] is over 40 µg/mL. Moreover, the “IC50, ADCVI with neutrophils, JR-FL-infected PBMC” value with HIV-1 JR-FL gp120 [10] is over 40 µg/mL. Moreover, the “IC50, ADCVI with neutrophils, 89.6-infected PBMC” value with HIV-1 89.6 gp120 [11] is over 40 µg/mL. In addition, the “IC50, ADCVI with neutrophils, 93MW960-infected PBMC” value with HIV-1 93MW960 gp120 [12] was determined as 9.5 µg/mL. The “IC50, ADCVI with neutrophils, BaL-infected PBMC” value with HIV-1 BaL gp120 [13] is over 40 µg/mL.

B5: F425-A1g8 IgA1 antibody variant (antibody)
heavy: QEQLVESGGGVVQPGRSLRLSCEASGFIFSAFVLHWVRQAPGKGLEWVAVVWYDGNSKYYADSVKGRFTISRDTSQNTLHLQMDSLRPEDTAVYYCAREWVADDDTFDGFDVWGQGTMVTVSSASLTSPKVFPLSLCSTQPDGNVVIACLVQGFFPQEPLSVTWSESGQGVTARNFPPSQDASGDLYTTSSQLTLPATQCLAGKSVTCHVKHYTNPSQDVTVPCPVPSTPPTPSPSTPPTPSPSCCHPRLSLHRPALEDLLLGSEANLTCTLTGLRDASGVTFTWTPSSGKSAVQGPPDRDLCGCYSVSSVLSGCAEPWNHGKTFTCTAAYPESKTPLTATLSKSGNTFRPEVHLLPPPSEELALNELVTLTCLARGFSPKDVLVRWLQGSQELPREKYLTWASRQEPSQGTTTFAVTSILRVAAEDWKKGDTFSCMVGHEALPLAFTQKTIDRLAGKPTHVNVSVVMAEVDGTCY
light: not shown
In the case of B5, the “IC50, neutralization of HIV-1 JR-FL (TZM-bl cells, no sCD4)” value with HIV-1 JR-FL gp120 [8] came to 1.73 µg/mL. Besides, in the experiment with HIV-1 67970 gp120, the “IC50, neutralization of HIV-1 67970 (TZM-bl cells, no sCD4)” value came out at 23.3 µg/mL. Also, the “IC50, ADCVI with neutrophils, SF162-infected PBMC” value with HIV-1 SF162 gp120 [9] amounted to 6.1 µg/mL. Also, the “IC50, ADCVI with neutrophils, JR-FL-infected PBMC” value in the experiment with HIV-1 JR-FL gp120 [10] amounted to 16.6 µg/mL. Further, the “IC50, ADCVI with neutrophils, 89.6-infected PBMC” value with HIV-1 89.6 gp120 [11] was over 40 µg/mL. The “IC50, ADCVI with neutrophils, 93MW960-infected PBMC” value with HIV-1 93MW960 gp120 [12] worked out at 18.3 µg/mL. Moreover, the “IC50, ADCVI with neutrophils, BaL-infected PBMC” value with HIV-1 BaL gp120 [13] was over 40 µg/mL.
